Results from publication PMC6831305, “Secreted protein acidic and rich in cysteine mediates active targeting of human serum albumin in U87MG xenograft mouse models” (Theranostics, 2019).
One block for each binder: values may come before it.

What was measured:
[1] = molecular target: T1, FNR648-labeled human serum albumin (human, UniProt P02768 25-609, FNR648 fluorescence dye conjugated (site not stated)); assay: co-IP; SPARC and FNR648-HSA incubated 2 h at 4 °C after pre-clearing (normal rabbit serum, protein A/G PLUS-Agarose); precipitated with rabbit anti-SPARC antibody and protein A/G PLUS-Agarose; 8% SDS-PAGE, FNR648 fluorescence in the gel read by IVIS; conditions: both partners purified
T1 construct: human serum albumin (HSA), human; The pre-clearing step of the IP names plain 'HSA'; the detected species is FNR648-HSA; also called FNR648-HSA; HSA
T1 sequence (P02768 25-609): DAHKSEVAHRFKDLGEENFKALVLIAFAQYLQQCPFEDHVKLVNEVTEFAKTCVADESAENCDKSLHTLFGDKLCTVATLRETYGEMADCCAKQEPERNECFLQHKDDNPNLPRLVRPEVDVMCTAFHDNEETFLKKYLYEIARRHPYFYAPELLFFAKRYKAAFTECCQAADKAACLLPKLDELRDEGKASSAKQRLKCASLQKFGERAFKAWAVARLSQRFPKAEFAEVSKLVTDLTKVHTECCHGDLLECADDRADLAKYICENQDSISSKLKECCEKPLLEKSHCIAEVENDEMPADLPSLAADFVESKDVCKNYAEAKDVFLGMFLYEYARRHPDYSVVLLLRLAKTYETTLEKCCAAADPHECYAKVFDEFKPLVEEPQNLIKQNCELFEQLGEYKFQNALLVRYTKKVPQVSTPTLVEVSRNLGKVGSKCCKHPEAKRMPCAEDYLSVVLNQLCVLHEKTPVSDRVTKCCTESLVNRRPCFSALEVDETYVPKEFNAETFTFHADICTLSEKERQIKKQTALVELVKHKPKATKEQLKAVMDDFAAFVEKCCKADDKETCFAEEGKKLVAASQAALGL

[2] = molecular target: T1, FNR648-labeled human serum albumin; assay: FRET or BRET; Cy3-SPARC (donor) and FNR648-HSA (acceptor) added to U87MG cells; confocal imaging, excitation 514 nm, emission 540-600 nm (Cy3-SPARC) and 640-750 nm (FNR648-HSA); line ROI analysis; conditions: both partners purified

binding result [1]: binds
B1: recombinant human SPARC (secreted protein acidic and rich in cysteine) (natural protein, UniProt P09486 18-303, looked up)
chain: APQQEALPDETEVVEETVAEVTEVSVGANPVQVEVGEFDDGAEETEEEVVAENPCQNHHCKHGKVCELDENNTPMCVCQDPTSCPAPIGEFEKVCSNDNKTFDSSCHFFATKCTLEGTKKGHKLHLDYIGPCKYIPPCLDSELTEFPLRMRDWLKNVLVTLYERDEDNNLLTEKQKLRVKKIHENEKRLEAGDHPVELLARDFEKNYNMYIFPVHWQFGQLDQHPIDGYLSHTELAPLRAPLIPMEHCTTRFFETCDLDNDKYIALDEWAGCFGIKQKDIDKDLVI
notes: secreted protein acidic and rich in cysteine (SPARC), human, recombinant, cell-derived; also called exogenous SPARC; source: bought: R&D system (cell-derived, 941-SP)

binding result [2]: binds
B2: Cy3-labeled recombinant human SPARC (natural protein, UniProt P09486 18-303, looked up)
chain: B1 chain
modifications: ADIBO-NHS conjugated, then Cy3-azide by click reaction (sites not given)
notes: secreted protein acidic and rich in cysteine (SPARC), human, recombinant, cell-derived; Same bought protein as m2, with the Cy3 label; also called Cy3-SPARC; fluorescence-labeled SPARC; source: bought: R&D system (cell-derived, 941-SP), then labelled via ADIBO-NHS and Cy3-azide click reaction
